Results from the supplement of paper PMC7877785.
± gives the uncertainty stated by the source.

Assay: self-splicing fitness, log relative to wild type (ln ratio); higher = more splicing; Tetrahymena group I intron in knt gene, E. coli kanamycin selection, DiMSum; sequences stand for … in CUCUCU…GGAGGGAAAAGUUAUCAGGCAUGCACCUGGUAGCUAGUCUUUAAACCAAUAGAUUGCAUCGGUUUAAAAGGCAAGACCGUCAAAUUGCGGGAAAGGGGUCAACAGCCGUUCAGUACCAAGUCUCAGGGGAAACUUUGAGAUGGCCUUGCAAAGGGUAUGGUAAUAAGCUGACGGACAUGGUCCUAACCACGCAGCCAAGUCCUAAGUCAACAGAUCUUCUGUUGAUAUGGAUGCAGUUCACAGACUAAAUGUCGGUCGGGGAAGAUGUAUUCUUCUCAUAAGAUAUAGUCGGACCUCUCCUUAAUGGGAGCUAGCGGAUGAAGUGAUGCAACACUGGAGCCGCUGGGAACUAAUUUGUAUGCGAAAGUAUAUUGAUUAGUUUUGGAGUACUCGUGGUCG
In short: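 A randomised library covering all eight P1ex-region intron nucleotides was built with the intron in the knt kanamycin-resistance gene on pET-22b(+) and held in E. coli BL21(DE3). Cells were grown overnight at 37°C or 30°C on LB agar, with or without 25 μg/mL kanamycin, plus 100 μg/mL carbenicillin, 50 μM IPTG and 0.2% rhamnose, and pooled colonies were amplicon-sequenced on an Illumina HiSeq 2500. DiMSum fitness is the error-weighted combination of wild-type-normalised replicate fold changes, kanamycin versus none.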

Row | Sequence | self-splicing fitness (ln) (30 °C) | self-splicing fitness (ln) (37 °C)
1 | UAGGAGCAAUAUUACGAAAA | -3.01 ± 0.45 | -1.65 ± 0.41
2 | UAGGAGCAAUAUUACGAACA | -2.08 ± 0.29 | 
3 | UAGGAGCAAUAUUACGAAGC | -4.41 ± 0.33 | -1.44 ± 0.26
4 | UAGGAGCAAUAUUACGACAU | -3.83 ± 0.039 | -2.8 ± 0.047
5 | UAGGAGCAAUAUUACGACGU |  | -1.9 ± 0.38
6 | UAGGAGCAAUAUUACGAUAC | -4.56 ± 0.32 | -1.86 ± 0.28
7 | UAGGAGCAAUAUUACGAUGG | -3.36 ± 0.28 | -1.4 ± 0.24
8 | UAGGAGCAAUAUUACGCAGG | -2 ± 0.21 | 
9 | UAGGAGCAAUAUUACGCGUA | -1.12 ± 0.15 | -0.31 ± 0.12
10 | UAGGAGCAAUAUUACGGCGG | -2.34 ± 0.24 | -0.013 ± 0.26
11 | UAGGAGCAAUAUUACGGGCA | -2.72 ± 0.26 | -2.63 ± 0.39
12 | UAGGAGCAAUAUUACGGGUG | -2.74 ± 0.27 | -1.14 ± 0.26
13 | UAGGAGCAAUAUUACGGUAU | -2.93 ± 0.36 | -2.66 ± 0.3
14 | UAGGAGCAAUAUUACGGUCU | -1.36 ± 0.37 | 
15 | UAGGAGCAAUAUUACGUGAG | -2.42 ± 0.14 | -1.55 ± 0.14
16 | UAGUAGCAAUAUUACGACCC | -0.998 ± 0.35 | -1.28 ± 0.43
17 | UAGUAGCAAUAUUACGCAAA | -3.4 ± 0.3 | -2.28 ± 0.2
18 | UAGUAGCAAUAUUACGCACA | -1.2 ± 0.1 | -0.493 ± 0.12
19 | UAGUAGCAAUAUUACGCACU | -0.737 ± 0.11 | -0.331 ± 0.12
20 | UAGUAGCAAUAUUACGCAGC | -2.96 ± 0.47 | 
21 | UAGUAGCAAUAUUACGCCCA | 0.0306 ± 0.38 | 
22 | UAGUAGCAAUAUUACGCCUG | -0.198 ± 0.12 | -0.437 ± 0.13
23 | UAGUAGCAAUAUUACGCGAG | -1.57 ± 0.12 | -0.941 ± 0.17
24 | UAGUAGCAAUAUUACGCUCG | 0.127 ± 0.15 | 0.103 ± 0.19
25 | UAGUAGCAAUAUUACGGAGU | -4.27 ± 0.28 | -2.62 ± 0.16

Row | Sequence | self-splicing fitness (ln) (30 °C) | self-splicing fitness (ln) (37 °C)
26 | UAGUAGCAAUAUUACGGCUU | -0.242 ± 0.11 | 0.187 ± 0.13
27 | UAGUAGCAAUAUUACGGGCA | -1.17 ± 0.16 | -0.536 ± 0.15
28 | UAGUAGCAAUAUUACGUAGU | -4.39 ± 0.42 | -0.839 ± 0.21
29 | UAGUAGCAAUAUUACGUAUA | -1.69 ± 0.25 | -1.14 ± 0.27
30 | UAGUAGCAAUAUUACGUCUC | -3.51 ± 0.45 | -1.59 ± 0.2
31 | UAGUAGCAAUAUUACGUGUG | -2.02 ± 0.11 | -1.23 ± 0.13
32 | UAUAAGCAAUAUUACGAAAC |  | -0.0191 ± 0.39
33 | UAUAAGCAAUAUUACGAAUA | -1.55 ± 0.24 | -0.822 ± 0.19
34 | UAUAAGCAAUAUUACGACGG | -0.907 ± 0.12 | 0.474 ± 0.18
35 | UAUAAGCAAUAUUACGAGAG | -3.52 ± 0.38 | -2.52 ± 0.27
36 | UAUAAGCAAUAUUACGAGCA | -0.842 ± 0.23 | -0.234 ± 0.18
37 | UAUAAGCAAUAUUACGAUAA | -1.17 ± 0.12 | -0.947 ± 0.12
38 | UAUAAGCAAUAUUACGAUGA | -0.333 ± 0.1 | 0.344 ± 0.13
39 | UAUAAGCAAUAUUACGCAGA | -0.745 ± 0.45 | -1.25 ± 0.18
40 | UAUAAGCAAUAUUACGCCAA | -1.14 ± 0.29 | -0.0916 ± 0.42
41 | UAUAAGCAAUAUUACGCCGG | -0.545 ± 0.16 | -0.0733 ± 0.18
42 | UAUAAGCAAUAUUACGCCUG | -0.378 ± 0.13 | 0.297 ± 0.16
43 | UAUAAGCAAUAUUACGCGCG | -0.131 ± 0.11 | -0.655 ± 0.14
44 | UAUAAGCAAUAUUACGGAAA | -2.19 ± 0.37 | -1.48 ± 0.33
45 | UAUAAGCAAUAUUACGGAAU | -2.37 ± 0.22 | -0.6 ± 0.16
46 | UAUAAGCAAUAUUACGGCAA | -0.395 ± 0.17 | -0.0869 ± 0.2
47 | UAUAAGCAAUAUUACGGGUA | -0.177 ± 0.1 | 0.401 ± 0.12
48 | UAUAAGCAAUAUUACGGUUG | -1.61 ± 0.11 | -0.603 ± 0.13
49 | UAUAAGCAAUAUUACGUACA | -0.793 ± 0.12 | -0.427 ± 0.14
50 | UAUAAGCAAUAUUACGUCAC | -2.89 ± 0.33 | -1.38 ± 0.32

Row | Sequence | self-splicing fitness (ln) (30 °C) | self-splicing fitness (ln) (37 °C)
51 | UAUAAGCAAUAUUACGUCCA | -1.23 ± 0.12 | 0.113 ± 0.18
52 | UAUAAGCAAUAUUACGUCUC |  | -2.22 ± 0.35
53 | UAUAAGCAAUAUUACGUGAA | 0.0802 ± 0.12 | -0.933 ± 0.15
54 | UAUAAGCAAUAUUACGUGCC | -3.05 ± 0.22 | -1.44 ± 0.17
55 | UAUAAGCAAUAUUACGUGCU | -2.56 ± 0.16 | -1.32 ± 0.15
56 | UAUAAGCAAUAUUACGUGGA | -2.08 ± 0.19 | -1.71 ± 0.19
57 | UAUCAGCAAUAUUACGAAAU | -2.9 ± 0.16 | -0.792 ± 0.15
58 | UAUCAGCAAUAUUACGAACG | 0.353 ± 0.085 | 0.157 ± 0.094
59 | UAUCAGCAAUAUUACGAAGA | -0.93 ± 0.12 | -0.91 ± 0.13
60 | UAUCAGCAAUAUUACGAGUC |  | -1.81 ± 0.48
61 | UAUCAGCAAUAUUACGAUUU | 0.142 ± 0.055 | 0.207 ± 0.07
62 | UAUCAGCAAUAUUACGCACU | -0.0365 ± 0.087 | 0.104 ± 0.094
63 | UAUCAGCAAUAUUACGCUGA |  | -2.31 ± 0.37
64 | UAUCAGCAAUAUUACGCUGC | -2.59 ± 0.35 | -0.822 ± 0.24
65 | UAUCAGCAAUAUUACGGGAC | -3.15 ± 0.22 | -2.26 ± 0.25
66 | UAUCAGCAAUAUUACGGGCC |  | -2.07 ± 0.3
67 | UAUCAGCAAUAUUACGGUAC | -3.28 ± 0.26 | -2.54 ± 0.3
68 | UAUCAGCAAUAUUACGGUGA | -0.121 ± 0.054 | -0.19 ± 0.065
69 | UAUCAGCAAUAUUACGGUUG | -0.952 ± 0.068 | -0.113 ± 0.1
70 | UAUCAGCAAUAUUACGUAAG | -2.16 ± 0.16 | -1.09 ± 0.17
71 | UAUCAGCAAUAUUACGUAGU | -1.87 ± 0.086 | -1.19 ± 0.08
72 | UAUCAGCAAUAUUACGUCAA | -0.73 ± 0.092 | -0.445 ± 0.11
73 | UAUCAGCAAUAUUACGUUAU | -3.07 ± 0.11 | -1.89 ± 0.1
74 | UAUGAGCAAUAUUACGCAGU | -1.98 ± 0.24 | -0.419 ± 0.21
75 | UAUGAGCAAUAUUACGCGAG | -2.87 ± 0.17 | -0.834 ± 0.08

Row | Sequence | self-splicing fitness (ln) (30 °C) | self-splicing fitness (ln) (37 °C)
76 | UAUGAGCAAUAUUACGCGAU |  | -2.93 ± 0.37
77 | UAUGAGCAAUAUUACGCGUU | -4.08 ± 0.36 | -1.79 ± 0.24
78 | UAUGAGCAAUAUUACGCUCA | -2.45 ± 0.31 | -2.73 ± 0.27
79 | UAUGAGCAAUAUUACGCUGU | -3.79 ± 0.25 | -3.21 ± 0.24
80 | UAUGAGCAAUAUUACGGCGG | -3.22 ± 0.23 | -1.72 ± 0.26
81 | UAUGAGCAAUAUUACGGCUC |  | -0.823 ± 0.41
82 | UAUGAGCAAUAUUACGGUGA | -2.21 ± 0.16 | -3.36 ± 0.27
83 | UAUGAGCAAUAUUACGGUGC | -3.01 ± 0.41 | -0.888 ± 0.3
84 | UAUGAGCAAUAUUACGUACU | -4.19 ± 0.42 | -1.09 ± 0.41
85 | UAUGAGCAAUAUUACGUAGC | -3.71 ± 0.3 | -2.5 ± 0.29
86 | UAUGAGCAAUAUUACGUAUA | -2 ± 0.4 | -1.02 ± 0.28
87 | UAUGAGCAAUAUUACGUGAG | -2.91 ± 0.14 | -2.74 ± 0.23
88 | UAUGAGCAAUAUUACGUGCG | -1.06 ± 0.12 | -1.41 ± 0.16
89 | UAUGAGCAAUAUUACGUUAC | -3.37 ± 0.36 | -2.48 ± 0.23
90 | UAUGAGCAAUAUUACGUUUG | -3.93 ± 0.26 | -1.8 ± 0.15
91 | UAUUAGCAAUAUUACGACGC | -2.92 ± 0.48 | -2.18 ± 0.38
92 | UAUUAGCAAUAUUACGAUUG | -1.08 ± 0.089 | -0.0341 ± 0.14
93 | UAUUAGCAAUAUUACGCACG | -0.859 ± 0.16 | 0.0642 ± 0.17
94 | UAUUAGCAAUAUUACGCCGU |  | -1.63 ± 0.33
95 | UAUUAGCAAUAUUACGCGGG | -2.9 ± 0.18 | -1.59 ± 0.23
96 | UAUUAGCAAUAUUACGCUGG | -2 ± 0.14 | -0.655 ± 0.14
97 | UAUUAGCAAUAUUACGGAUU | -1.74 ± 0.12 | -0.699 ± 0.11
98 | UAUUAGCAAUAUUACGGCCC | -1.78 ± 0.5 | 
99 | UAUUAGCAAUAUUACGGGAG | -3.18 ± 0.16 | -2.16 ± 0.12
100 | UAUUAGCAAUAUUACGGGUC | -2.14 ± 0.37 | -2.29 ± 0.35
